Data from publication PMC4536637, “Unique Toll-Like Receptor 4 Activation by NAMPT/PBEF Induces NFκB Signaling and Inflammatory Lung Injury” (Scientific Reports, 2015).

Target: T1, recombinant human TLR4 (Toll-like receptor 4) (human, UniProt O00206 24-631)
T1 construct: Toll-like receptor 4, human, recombinant; No catalogue number is printed; also called rTLR4; source: bought: R&D Systems
Experiment: SPR; Bio-Rad ProteOn XPR36, GLC chip; Bethyl PBEF antibody covalently immobilised (5000 RU); rPBEF only (100 nM), rTLR4 only (1 uM) and pre-mixed rPBEF-rTLR4 injected over the antibody surface; PBST (10 mM phosphate, 150 mM NaCl, 0.05% Tween20, pH 7.4)
Conditions: both partners purified

T1 sequence (O00206 24-631): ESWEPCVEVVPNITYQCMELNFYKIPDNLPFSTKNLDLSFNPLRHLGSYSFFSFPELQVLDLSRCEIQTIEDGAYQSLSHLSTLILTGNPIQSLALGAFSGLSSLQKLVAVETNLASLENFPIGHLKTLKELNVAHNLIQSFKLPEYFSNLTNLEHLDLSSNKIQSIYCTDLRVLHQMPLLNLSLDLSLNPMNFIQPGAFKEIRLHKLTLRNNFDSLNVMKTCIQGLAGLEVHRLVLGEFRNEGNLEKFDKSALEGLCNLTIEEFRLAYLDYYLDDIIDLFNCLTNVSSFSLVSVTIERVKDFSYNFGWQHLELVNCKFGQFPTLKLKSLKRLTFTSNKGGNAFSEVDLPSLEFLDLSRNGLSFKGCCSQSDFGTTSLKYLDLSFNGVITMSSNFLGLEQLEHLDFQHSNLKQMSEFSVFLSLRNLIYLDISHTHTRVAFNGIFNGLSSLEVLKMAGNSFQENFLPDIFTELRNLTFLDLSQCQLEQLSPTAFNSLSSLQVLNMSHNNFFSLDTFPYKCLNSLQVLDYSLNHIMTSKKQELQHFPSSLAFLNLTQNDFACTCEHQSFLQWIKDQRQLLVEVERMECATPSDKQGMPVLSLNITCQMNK

binding result: binds
B1: recombinant human NAMPT/PBEF (nicotinamide phosphoribosyl-transferase / pre-B cell colony-enhancing factor) (natural protein, UniProt P43490 1-491, looked up)
chain: MNPAAEAEFNILLATDSYKVTHYKQYPPNTSKVYSYFECREKKTENSKLRKVKYEETVFYGLQYILNKYLKGKVVTKEKIQEAKDVYKEHFQDDVFNEKGWNYILEKYDGHLPIEIKAVPEGFVIPRGNVLFTVENTDPECYWLTNWIETILVQSWYPITVATNSREQKKILAKYLLETSGNLDGLEYKLHDFGYRGVSSQETAGIGASAHLVNFKGTDTVAGLALIKKYYGTKDPVPGYSVPAAEHSTITAWGKDHEKDAFEHIVTQFSSVPVSVVSDSYDIYNACEKIWGEDLRHLIVSRSTQAPLIIRPDSGNPLDTVLKVLEILGKKFPVTENSKGYKLLPPYLRVIQGDGVDINTLQEIVEGMKQKMWSIENIAFGSGGGLLQKLTRDLLNCSFKCSYVVTNGLGINVFKDPVADPNKRSKKGRLSLHRTPAGNFVTLEEGKGDLEEYGQDLLHTVFKNGKVTKSYSFDEIRKNAQLNIELEAAHH
notes: nicotinamide phosphoribosyl-transferase (NAMPT/PBEF/visfatin), human, bioactive non-denatured recombinant protein; also called rPBEF; visfatin; source: bought: MBL International
